Data on 3 molecules can be found in paper PMC7904734, “ORP/Osh mediate cross-talk between ER-plasma membrane contact site components and plasma membrane SNAREs” (Cellular and Molecular Life Sciences: CMLS, 2020).

Assay [1] has as its target YFP(C)·Sec22p (S. cerevisiae) (UniProt P22214). The assay is described as follows: split reporter (BiFC, NanoBiT); BiFC in living Δosh1-3 yeast cells (Y36), compared with wt (Y2).
Another assay concerns the target T1, His·Osh3p (S. cerevisiae, UniProt P38713 1-996).
T1 construct: Osh3p, PCR amplified and cloned into vector 1509; also called His6-tagged Osh3p; source: bacterial production, purified (Ni-NTA agarose)
T1 sequence (looked up): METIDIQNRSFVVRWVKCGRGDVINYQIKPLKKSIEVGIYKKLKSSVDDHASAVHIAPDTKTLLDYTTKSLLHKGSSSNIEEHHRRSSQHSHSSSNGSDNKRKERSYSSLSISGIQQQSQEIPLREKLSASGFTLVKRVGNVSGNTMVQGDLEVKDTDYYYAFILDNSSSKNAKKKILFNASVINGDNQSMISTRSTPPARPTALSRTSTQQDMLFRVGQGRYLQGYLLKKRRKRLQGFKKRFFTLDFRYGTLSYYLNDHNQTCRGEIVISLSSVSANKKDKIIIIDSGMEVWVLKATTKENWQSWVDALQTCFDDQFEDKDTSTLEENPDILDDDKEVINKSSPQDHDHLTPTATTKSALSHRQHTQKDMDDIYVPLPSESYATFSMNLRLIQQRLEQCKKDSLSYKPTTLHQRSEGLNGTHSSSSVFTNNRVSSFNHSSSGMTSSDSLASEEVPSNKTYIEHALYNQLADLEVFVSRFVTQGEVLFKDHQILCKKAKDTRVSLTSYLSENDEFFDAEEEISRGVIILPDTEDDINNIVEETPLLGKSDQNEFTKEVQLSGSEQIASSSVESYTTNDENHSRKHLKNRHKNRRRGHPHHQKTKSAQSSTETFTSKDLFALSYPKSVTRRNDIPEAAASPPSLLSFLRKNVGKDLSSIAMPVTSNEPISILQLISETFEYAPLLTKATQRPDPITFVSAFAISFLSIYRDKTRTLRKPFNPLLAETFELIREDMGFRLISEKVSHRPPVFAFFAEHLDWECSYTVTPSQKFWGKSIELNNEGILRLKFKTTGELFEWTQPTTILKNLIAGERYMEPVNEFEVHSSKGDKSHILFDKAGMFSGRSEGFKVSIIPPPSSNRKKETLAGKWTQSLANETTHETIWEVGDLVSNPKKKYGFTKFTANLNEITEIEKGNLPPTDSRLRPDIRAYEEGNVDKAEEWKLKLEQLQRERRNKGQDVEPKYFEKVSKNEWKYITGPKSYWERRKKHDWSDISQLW
The assay is described as follows: pull-down; 2 μM GST·Sec9p(421–651) or GST on Glutathione-Agarose, equal molar His·Osh3p, 100 µl PBS + 0.1% Triton X-100, 1 h, room temperature; SDS-PAGE, Coomassie. The conditions noted are these: both partners purified.

In assay [2] the target is T2, Venus(C)·VAPA (lentiviral) (human), Q9P0L0.
T2 chain: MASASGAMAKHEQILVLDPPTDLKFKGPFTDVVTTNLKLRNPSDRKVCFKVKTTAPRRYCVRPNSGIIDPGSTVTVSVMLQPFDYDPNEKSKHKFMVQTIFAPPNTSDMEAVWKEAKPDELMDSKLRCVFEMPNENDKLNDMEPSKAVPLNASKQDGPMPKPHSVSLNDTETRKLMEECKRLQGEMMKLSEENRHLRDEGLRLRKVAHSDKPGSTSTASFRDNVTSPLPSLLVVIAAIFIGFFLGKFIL
The assay is described as follows: split reporter (BiFC, NanoBiT); BiFC of Venus(N)·VAPA and Venus(C)·VAPA in wt mouse hippocampal neurons, lentiviral; scrambled or ORP2 shRNA; infected DIV 3 and fixed DIV 7, or infected DIV 7 and fixed DIV 14. As to conditions: remark: other sources report otherwise.

Chain of YFP(C)·Sec22p (S. cerevisiae) (P22214 whole entry): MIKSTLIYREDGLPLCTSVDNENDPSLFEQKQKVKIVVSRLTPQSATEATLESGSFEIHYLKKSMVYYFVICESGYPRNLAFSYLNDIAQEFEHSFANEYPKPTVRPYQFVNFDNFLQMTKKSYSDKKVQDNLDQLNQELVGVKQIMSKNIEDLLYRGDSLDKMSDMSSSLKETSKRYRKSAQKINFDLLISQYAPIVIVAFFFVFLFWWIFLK

Turning to “YFP(N)·Sso1p (from UniProt P32867 1-290) (natural protein)”, the reduction of the BiFC signal in the Δosh1-3 strain against wt in assay [1] was determined as 19%.

B1: GST·Sec9p(421–651) (domain or fragment, S. cerevisiae, UniProt P40357 421-651, looked up)
chain: EEDEAVDEIKQEIKFTKQSSVASTRNTLKMAQDAERAGMNTLGMLGHQSEQLNNVEGNLDLMKVQNKVADEKVAELKKLNRSILAVHVSNPFNSKRRRREREEQLKNRKIEEKLMREQTSQQLSQSTQRIEGAMNANNNISEVRERYQRKNVLEKAKRYQFENDEEDDEMELEIDRNLDQIQQVSNRLKKMALTTGKELDSQQKRLNNIEESTDDLDINLHMNTNRLAGIR
notes: cut out of 1530 and cloned into 977
In the case of B1, the binding result in the assay with His·Osh3p is reported as “binds”.

B2: Venus(N)·VAPA (lentiviral), Q9P0L0 1-249 (natural protein)
chain: T2 chain
In assay [2], B2 had a fold reduction of VAPA-VAPA BiFC patches in ORP2 KD cells (transduced DIV 3, fixed DIV 7) of 1.7 fold and a fold reduction of VAPA-VAPA BiFC patches in ORP2 KD cells (transduced DIV 7, fixed DIV 14) of 2.3 fold.
